From patent publication US20100150950A1, “HUMAN ANTIBODIES THAT BIND CD70 AND USES THEREOF” (Medarex, Inc., priority 2006, published 2010)

T1: CD70 expressed on the surface of Daudi lymphoma cells (Homo sapiens, UniProt P32970)
T1 construct: endogenous in cells; host or cells: Daudi (ATCC CCL-213), HuT 78 (TIB-161), Raji (CCL-86), Granta 519 (DSMZ 342)
T1 sequence (P32970 1-193): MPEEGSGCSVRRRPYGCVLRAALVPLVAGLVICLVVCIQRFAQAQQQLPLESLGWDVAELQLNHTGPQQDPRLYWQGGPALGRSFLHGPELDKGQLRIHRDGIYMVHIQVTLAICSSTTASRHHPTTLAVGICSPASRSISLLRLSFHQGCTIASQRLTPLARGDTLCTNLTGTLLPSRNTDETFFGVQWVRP

T2: CD70 (Homo sapiens, UniProt P32970)
T2 sequence (P32970 1-193): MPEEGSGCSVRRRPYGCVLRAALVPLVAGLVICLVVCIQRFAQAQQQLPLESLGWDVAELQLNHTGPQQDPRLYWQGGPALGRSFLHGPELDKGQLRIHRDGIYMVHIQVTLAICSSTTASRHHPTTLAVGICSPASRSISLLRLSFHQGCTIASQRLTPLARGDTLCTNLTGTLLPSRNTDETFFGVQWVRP


Columns and labels:
[1] = system: monkey rhesus CD70+ B lymphoma cell line LCL8664; experiment: FACS cross-reactivity with rhesus B lymphoma cells; format: binding; details: antibody 1 μg/ml
Procedure: FACS analysis was also employed to access the ability of the anti-CD70 antibody 69A7 cross reacting with the monkey rhesus CD70+B lymphoma cell line, LCL8664 (ATCC#: CRL-1805). Binding of the HuMAb 69A7 anti-CD70 human monoclonal antibody was assessed by incubating 1×10^5 cells with 69A7 at a concentration of 1 μg/ml. The cells were washed and binding was detected with a FITC-labeled anti-human IgG Ab. An isotype control antibody was used as a negative control. Flow cytometric analyses were performed using a FACSCalibur flow cytometry (Becton Dickinson, San Jose, Calif.).

[2] = biological target: T1, CD70 expressed on the surface of Daudi lymphoma cells; experiment: Flow cytometry binding to Daudi cells; details: antibody 1 μg/ml
Procedure: Anti-CD70 antibodies were tested for binding to lymphoma cells expressing CD70 on their cell surface by flow cytometry.
The lymphoma cell lines Daudi (ATCC Accession No. CCL-213), HuT 78 (ATCC Accession No. TIB-161) and Raji (ATCC Accession No. CCL-86) were each tested for antibody binding. Binding of the HuMAb 2H5 anti-CD70 human monoclonal antibody was assessed by incubating 1×10^5 cells with 2H5 at a concentration of 1 μg/ml. The cells were washed and binding was detected with a FITC-labeled anti-human IgG Ab. […] Flow cytometric analyses were performed using a FACSCalibur flow cytometry (Becton Dickinson, San Jose, Calif.). The anti-CD70 monoclonal antibody 2H5 bound to the lymphoma cell lines Daudi, HuT 78 and Raji, as measured by the mean fluorescent intensity (MFI) of staining.
The Daudi lymphoma cell line and 786-O renal carcinoma cell were further tested for antibody binding. Binding of the HuMAb 69A7 anti-CD70 human monoclonal antibody was assessed by incubating 2×10^5 cells with 69A7 at a concentration of 1 μg/ml. The cells were washed and binding was detected with a FITC-labeled anti-human IgG Ab. […] The anti-CD70 monoclonal antibody 69A7 bound to the Daudi lymphoma cell line and 786-O renal carcinoma cell line, as measured by the mean fluorescent intensity (MFI) of staining.

CD70 = biological target: T2, CD70; experiment: Epitope binding experiments using BIAcore
Procedure: Such cross-competing antibodies can be identified based on their ability to cross-compete with 2H5, 10B4, 8B5, 18E7, 69A7, 69A7Y or 1F4 in standard CD70 binding assays. For example, standard ELISA assays can be used in which a recombinant human CD70 protein is immobilized on the plate, one of the antibodies is fluorescently labeled and the ability of non-labeled antibodies to compete off the binding of the labeled antibody is evaluated. Additionally or alternatively, BIAcore analysis can be used to assess the ability of the antibodies to cross-compete.

[3] = system: CD70 costimulation of human CD3+ T cells; experiment: CD70 co-stimulated human T cell proliferation and IFN-γ secretion; format: cell-based; details: CHO-S/mCD32/CD70 cells + anti-hCD3, 3 days
Procedure: In this experiment, the HuMAb anti-CD70 antibody 2H5 was tested for inhibition of inflammatory responses. CHO-S cells stably transfected with mouse CD32 (CHO-S/mCD32 cells) were transiently transfected with a full length human CD70 construct (CHO-S/mCD32/CD70 cells). Surface expression was confirmed by flow cytometry using 2A5 and PE conjugated anti-human IgG secondary Ab (data not shown). RosetteSep® Human T Cell Enrichment Kit (Cat# 15061; StemCell Technologies Inc) purified human peripheral blood CD3^+ T cells were stimulated in vitro at 1×10^6/well with 1×10^5 CHO-S/mCD32 or CHO-S/mCD32/CD70 cells/well, 1μg/ml anti-hCD3 (clone OKT3; BD Bioscience) and serial dilutions of either the HuMAb 2H5 or non-fucosylated 2H5 (2H5 NF) in triplicate wells of a 96 well plate. After 3 days supernatant aliquots were collected and interferon-gamma (INF-γ) secretion was measured by a quantitative ELISA kit (BD Biosciences). The plates were pulsed with 1 μCi/ml of ^3H-thymidine, incubated for 8 hours, cells were harvested and ^3H-thymidine incorporation was read on a Trilux® 1450 Microbeta Counter (Wallac, Inc.). An IgG1 isotype control antibody was used as a negative control. […] Data also show 2H5 inhibition is specific to CD70 costimulation as 2H5 had no effect on anti-CD3^+ CHO-S/mCD32 mediated proliferation. […]

[4] = system: CMV activated CD70+/CD4+ cells; experiment: CMV Ag stimulated human CD4+ T cell expansion; format: cell-based; details: 2 μg/ml, day 9
Procedure: CMV positive pre-screened donors were cultured in AIM-V media supplemented with 10% heat-inactivated FCS at 1×10^6 cells/ml on 24-well culture plates and stimulated with 5.0 μg/ml of CMV lysate in the presence of 2 μg/ml of biotinylated 2H5, 2H5 NF or hIgG1nf control Abs. Cells were harvested on day 9 and the number of viable cells/ml in each culture was determined by counting an aliquot using a hemocytometer and trypan blue exclusion. The cells were washed in staining buffer and blocked with 5% human serum. Biotinylated 2H5, 2H5 NF, or hIgG1nf were added to an equal volume of cells at 20 μg/ml final concentration. Cells were incubated for 30 minutes, washed and stained with anti-CD4-FITC and PE-conjugated streptavidin. Cells were again incubated for 30 minutes, washed twice and then fixed and permeabilized using BD Cytofix/Cytoperm kit. The cells were washed twice in perm/wash buffer and intracellular stained with anti-INFγ-APC (BD Clone B27). […] Cells were analyzed by flow cytometry for CD70 surface and INFγ intracellular expression by gating on live CD4+ cells. The number of CD4+/CD70+ and CD4+/INFγ+ cells/ml in each condition were calculated by multiplying the percent CD70+ or INFγ+ cells in the CD4 gate by the percent of total CD4+ cells times the total number of viable cells/ml ((%CD70+ or INFγ+)×(%CD4+)×(total viable cells/ml)).

| Molecule | cross-reactivity with monkey CD70+ B lymphoma cells [1] | binding to Daudi cells (MFI) [2] | epitope on CD70 (CD70) | CD70 co-stimulated INF-γ secretion [3] | CD70 co-stimulated proliferation [3] | depletion of CMV activated CD70+/CD4+ cells [4] [%] |
| --- | --- | --- | --- | --- | --- | --- |
| anti-CD70 human monoclonal antibody 69A7 (antibody, V domains shown, Human IgG from hybridoma; also called HuMAb 69A7; FITC-conjugated 69A7) VH: QVQLQESGPGLVKPSETLSLTCTVSGGSVSSDYYYWSWIRQPPGKGLEWLGYIYYSGSTNYNPSLKSRVTISVDTSKNQFSLKLRSVTTADTAVYYCARGDGDYGGNCFDYWGQGTLVTVSS VL: EIVLTQSPATLSLSPGERATLSCRASQSVSSYLAWYQQKPGQAPRLLIFDASNRATGIPARFSGSGSGTDFTLTISSLEPEDFAVYYCQQRSNWPLTFGGGTKVEIK | cross-reacts | bound | distinct epitopes | – | – | – |
| 2H5 NF: 2H5 HuMAb lacking fucosyl residues, expressed in CHO cell line Ms704-PF (antibody, V domains shown) VH: QVQLVESGGGVVQPGRSLRLSCAASGFTFSSYIMHWVRQAPGKGLEWVAVISYDGRNKYYADSVKGRFTISRDNSKNTLYLQMNSLRAEDTAVYYCARDTDGYDFDYWGQGTLVTVSS VL: EIVLTQSPATLSLSPGERATLSCRASQSVSSYLAWYQQKPGQAPRLLIYDASNRATGIPARFSGSGSGTDFTLTISSLEPEDFAVYYCQQRTNWPLTFGGGTKVEIK | – | – | – | completely inhibited | completely inhibited | 97 |
